# In patent US20220143145A1:
# Columns and labels:
# [1] = biological target: IL4 receptor (IL4Rα) on mouse sensory neurons (mouse) (UniProt P16382); assay: cell-based or functional assay
# [2] = biological target: IL10 receptor (IL10Rα) on mouse sensory neurons (mouse) (UniProt Q61727); assay: cell-based or functional assay
# Chain of UniProt Q61727 (Q61727 17-575): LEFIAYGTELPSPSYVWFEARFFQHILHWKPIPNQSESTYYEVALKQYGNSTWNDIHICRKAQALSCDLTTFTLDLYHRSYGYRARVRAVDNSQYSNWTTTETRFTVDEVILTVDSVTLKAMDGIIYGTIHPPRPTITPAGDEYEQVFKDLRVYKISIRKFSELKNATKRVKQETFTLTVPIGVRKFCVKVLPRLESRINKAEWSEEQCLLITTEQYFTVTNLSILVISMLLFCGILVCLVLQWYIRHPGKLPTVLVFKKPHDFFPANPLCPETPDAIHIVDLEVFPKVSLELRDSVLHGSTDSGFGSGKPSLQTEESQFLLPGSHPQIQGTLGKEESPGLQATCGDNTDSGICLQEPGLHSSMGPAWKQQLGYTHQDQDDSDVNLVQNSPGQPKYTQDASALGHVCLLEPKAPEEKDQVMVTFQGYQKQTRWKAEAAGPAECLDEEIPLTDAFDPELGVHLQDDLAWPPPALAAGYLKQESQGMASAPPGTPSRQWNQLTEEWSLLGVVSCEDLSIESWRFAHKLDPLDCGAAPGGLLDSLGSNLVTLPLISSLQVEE
# Chain of UniProt P16382 (P16382 26-810): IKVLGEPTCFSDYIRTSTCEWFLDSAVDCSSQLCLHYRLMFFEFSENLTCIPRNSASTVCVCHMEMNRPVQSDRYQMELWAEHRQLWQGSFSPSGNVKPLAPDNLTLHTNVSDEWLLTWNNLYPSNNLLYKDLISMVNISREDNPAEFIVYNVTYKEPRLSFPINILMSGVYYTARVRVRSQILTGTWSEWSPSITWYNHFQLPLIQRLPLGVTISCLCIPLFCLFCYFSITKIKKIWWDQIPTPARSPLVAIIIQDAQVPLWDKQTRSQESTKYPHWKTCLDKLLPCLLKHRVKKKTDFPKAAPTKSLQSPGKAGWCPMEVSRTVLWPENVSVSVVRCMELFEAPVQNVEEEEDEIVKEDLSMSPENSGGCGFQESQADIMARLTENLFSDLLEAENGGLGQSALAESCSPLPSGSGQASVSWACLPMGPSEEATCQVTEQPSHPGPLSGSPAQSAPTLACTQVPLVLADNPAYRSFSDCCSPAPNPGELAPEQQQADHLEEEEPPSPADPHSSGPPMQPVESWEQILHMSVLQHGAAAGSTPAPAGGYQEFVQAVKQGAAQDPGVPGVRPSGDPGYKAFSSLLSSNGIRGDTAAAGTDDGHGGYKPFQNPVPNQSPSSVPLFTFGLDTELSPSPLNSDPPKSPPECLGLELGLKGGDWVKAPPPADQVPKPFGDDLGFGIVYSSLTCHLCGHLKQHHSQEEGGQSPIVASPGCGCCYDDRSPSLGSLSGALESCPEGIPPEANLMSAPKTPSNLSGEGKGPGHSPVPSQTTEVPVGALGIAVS
substance,measurement,setting,value
IL4-10 fusion protein (ligand),concentration that completely reversed TNFα-induced sensitization of capsaicin-evoked calcium influx,[1],3 nM
same,concentration that completely reversed TNFα-induced sensitization of capsaicin-evoked calcium influx,[2],3 nM
